# Substitutions are numbered along the chain they refer to. In names and notes the source's numbering stands.
# B1: MetMAb × BHA10 IgG BsAb, CH1/Cκ Wild-Type (AB / H4DR variable domain designs, 7.8.60 CH3, N297Q) (bispecific antibody)
# heavy 1: EVQLVESGGGLVQPGGSLRLSCAASGYTFTSYWLHWVRKAPGKGLEWVGMIDPSNSDTRFNPEFKDRFTISADTSKNTAYLQMNSLRAEDTAVYYCATYRSYVTPLDYWGQGTLVTVSSASTKGPSVFPLAPSSKSTSGGTAALGCLVKDYFPEPVTVSWNSGALTSGVHTFPAVLQSSGLYSLSSVVTVPSSSLGTQTYICNVNHKPSNTKVDKKVEPKSCDKTHTCPPCPAPELLGGPSVFLFPPKPKDTLMISRTPEVTCVVVDVSHEDPEVKFNWYVDGVEVHNAKTKPREEQYQSTYRVVSVLTVLHQDWLNGKEYKCKVSNKALPAPIEKTISKAKGQPREPQVYTLPPSREEMTDNQVSLTCLVKGFYPSDIAVEWESNGQPENNYKTTPPVLMSDGSFFLASKLTVDKSRWQQGNVFSCSVMHEALHNHYTQKSLSLSPG
# light 1: RIQMTQSPSSLSASVGDRVTITCKSSQSLLYTSSQKNYLAWYQDKPGKAPKLLIYWASTRESGVPSRFSGSGSGTDFTLTISSLQPEDFATYYCQQYYAYPWTFGQGTKVEIKRTVAAPSVFIFPPSDEQLKSGTASVVCLLNNFYPREAKVQWKVDNALQSGNSQESVTEQDSKDSTYSLSSTLTLSKADYEKHKVYACEVTHQGLSSPVTKSFNRGEC
# heavy 2: QVQLVQSGAEVKKPGSSVKVSCKASGYTFTTYYLHWVRYAPGQGLEWMGWIYPGNVHAQYNEKFKGRVTITADKSTSTAYMELSSLRSEDTAVYYCARSWEGFPYWGRGTTVTVSSASTKGPSVFPLAPSSKSTSGGTAALGCLVKDYFPEPVTVSWNSGALTSGVHTFPAVLQSSGLYSLSSVVTVPSSSLGTQTYICNVNHKPSNTKVDKKVEPKSCDKTHTCPPCPAPELLGGPSVFLFPPKPKDTLMISRTPEVTCVVVDVSHEDPEVKFNWYVDGVEVHNAKTKPREEQYQSTYRVVSVLTVLHQDWLNGKEYKCKVSNKALPAPIEKTISKAKGQPRRPRVYTLPPSREEMTKNQVSLVCLVKGFYPSDIAVEWESNGQPENNYKTTPPVLDSDGSFFLYSVLTVDKSRWQQGNVFSCSVMHEALHNHYTQKSLSLSPG
# light 2: DIQMTQSPSSLSASVGDRVTITCKASQNVGINVAWYQRKPGDAPKSLISSASYRYSGVPSRFSGSGSGTDFTLTISSLQPEDFATYFCQQYDTYPFTFGQGTKVEIKRTVAAPSVFIFPPSDEQLKSGTASVVCLLNNFYPREAKVQWKVDNALQSGNSQESVTEQDSKDSTYSLSSTLTLSKADYEKHKVYACEVTHQGLSSPVTKSFNRGEC
# notes: Human IgG1; Tested as protein G purified product of four-plasmid co-expression; also called MetMAb × BHA10 Wild-Type
# B2: MetMAb × BHA10 IgG BsAb, CH1/Cκ design 14.1.2 (bispecific antibody)
# heavy 1: B1 heavy 1 with K149A, K215E
# light 1: B1 light 1 with E129K, S137R
# heavy 2: B1 heavy 2
# light 2: B1 light 2
# notes: Human IgG1; also called MetMAb × BHA10 14.1.2
# B3: MetMAb × BHA10 IgG BsAb, CH1/Cκ design 14.3.1.1 (bispecific antibody)
# heavy 1: B1 heavy 1 with K149A, S185A
# light 1: B1 light 1 with S137R, S182I
# heavy 2: B1 heavy 2 with K212E
# light 2: B1 light 2 with E123K
# notes: Human IgG1; also called MetMAb × BHA10 14.3.1.1
# B4: MetMAb × BHA10 IgG BsAb, CH1/Cκ design 14.3.1.2 (bispecific antibody)
# heavy 1: B1 heavy 1 with K149A, S185G
# light 1: B1 light 1 with S137R, S182I
# heavy 2: B1 heavy 2 with K212E
# light 2: B1 light 2 with E123K
# notes: Human IgG1; also called MetMAb × BHA10 14.3.1.2
# B5: MetMAb × Matuzumab IgG BsAb, CH1/Cκ Wild-Type (AB / H4DR variable domain designs, 7.8.60 CH3, N297Q) (bispecific antibody)
# heavy 1: B1 heavy 1
# light 1: B1 light 1
# heavy 2: QVQLVQSGAEVKKPGASVKVSCKASGYTFTSHWMHWVRYAPGQGLEWIGEFNPSNGRTNYNEKFKSKATMTVDTSTNTAYMELSSLRSEDTAVYYCASRDYDYDGRYFDYWGRGTLVTVSSASTKGPSVFPLAPSSKSTSGGTAALGCLVKDYFPEPVTVSWNSGALTSGVHTFPAVLQSSGLYSLSSVVTVPSSSLGTQTYICNVNHKPSNTKVDKKVEPKSCDKTHTCPPCPAPELLGGPSVFLFPPKPKDTLMISRTPEVTCVVVDVSHEDPEVKFNWYVDGVEVHNAKTKPREEQYQSTYRVVSVLTVLHQDWLNGKEYKCKVSNKALPAPIEKTISKAKGQPRRPRVYTLPPSREEMTKNQVSLVCLVKGFYPSDIAVEWESNGQPENNYKTTPPVLDSDGSFFLYSVLTVDKSRWQQGNVFSCSVMHEALHNHYTQKSLSLSPG
# light 2: DIQMTQSPSSLSASVGDRVTITCSASSSVTYMYWYQRKPGDAPKLLIYDTSNLASGVPSRFSGSGSGTDYTFTISSLQPEDIATYYCQQWSSHIFTFGQGTKVEIKRTVAAPSVFIFPPSDEQLKSGTASVVCLLNNFYPREAKVQWKVDNALQSGNSQESVTEQDSKDSTYSLSSTLTLSKADYEKHKVYACEVTHQGLSSPVTKSFNRGEC
# notes: Human IgG1; also called MetMAb × Matuzumab Wild-Type
# B6: MetMAb × Matuzumab IgG BsAb, CH1/Cκ design 14.1.2 (bispecific antibody)
# heavy 1: B1 heavy 1 with K149A, K215E
# light 1: B1 light 1 with E129K, S137R
# heavy 2: B5 heavy 2
# light 2: B5 light 2
# notes: Human IgG1; also called MetMAb × Matuzumab 14.1.2
# B7: Pertuzumab × BHA10 IgG BsAb, CH1/Cκ Wild-Type (AB / H4DR variable domain designs, 7.8.60 CH3, N297Q) (bispecific antibody)
# heavy 1: EVQLVESGGGLVQPGGSLRLSCAASGFTFTDYTMDWVRKAPGKGLEWVADVNPNSGGSIYNQEFKGRFTLSVDRSKNTLYLQMNSLRAEDTAVYYCARNLGPSFYFDYWGQGTLVTVSSASTKGPSVFPLAPSSKSTSGGTAALGCLVKDYFPEPVTVSWNSGALTSGVHTFPAVLQSSGLYSLSSVVTVPSSSLGTQTYICNVNHKPSNTKVDKKVEPKSCDKTHTCPPCPAPELLGGPSVFLFPPKPKDTLMISRTPEVTCVVVDVSHEDPEVKFNWYVDGVEVHNAKTKPREEQYQSTYRVVSVLTVLHQDWLNGKEYKCKVSNKALPAPIEKTISKAKGQPREPQVYTLPPSREEMTDNQVSLTCLVKGFYPSDIAVEWESNGQPENNYKTTPPVLMSDGSFFLASKLTVDKSRWQQGNVFSCSVMHEALHNHYTQKSLSLSPG
# light 1: RIQMTQSPSSLSASVGDRVTITCKASQDVSIGVAWYQDKPGKAPKLLIYSASYRYTGVPSRFSGSGSGTDFTLTISSLQPEDFATYYCQQYYIYPYTFGQGTKVEIKRTVAAPSVFIFPPSDEQLKSGTASVVCLLNNFYPREAKVQWKVDNALQSGNSQESVTEQDSKDSTYSLSSTLTLSKADYEKHKVYACEVTHQGLSSPVTKSFNRGEC
# heavy 2: B1 heavy 2
# light 2: B1 light 2
# notes: Human IgG1; also called Pertuzumab × BHA10 Wild-Type
# B8: Pertuzumab × BHA10 IgG BsAb, CH1/Cκ design 14.1.2 (bispecific antibody)
# heavy 1: B7 heavy 1 with K149A, K215E
# light 1: B7 light 1 with E123K, S131R
# heavy 2: B1 heavy 2
# light 2: B1 light 2
# notes: Human IgG1; also called Pertuzumab × BHA10 14.1.2
# B9: Pertuzumab × BHA10 IgG BsAb, CH1/Cκ design 14.3.1.1 (bispecific antibody)
# heavy 1: B7 heavy 1 with K149A, S185A
# light 1: B7 light 1 with S131R, S176I
# heavy 2: B1 heavy 2 with K212E
# light 2: B1 light 2 with E123K
# notes: Human IgG1; also called Pertuzumab × BHA10 14.3.1.1
# B10: Pertuzumab × BHA10 IgG BsAb, CH1/Cκ design 14.3.1.2 (bispecific antibody)
# heavy 1: B7 heavy 1 with K149A, S185G
# light 1: B7 light 1 with S131R, S176I
# heavy 2: B1 heavy 2 with K212E
# light 2: B1 light 2 with E123K
# notes: Human IgG1; also called Pertuzumab × BHA10 14.3.1.2
# Target: T1, hHER-2-Fc (human, UniProt P04626 23-652)
# T1 construct: Bought (R&D systems); Coated on the plate; not shown: Fc of the bought fusion protein
# Assay: sandwich ELISA with mis-matched antigens
# Method: (§1) The dual-binding activity of the same synthesized IgG BsAbs is assessed using a sandwich ELISA. […] Sandwich ELISAs are developed for detecting the four different BsAb test articles; one for detecting anti-HER-2/anti-EGFR BsAb activity, one for detecting anti-HER-2/anti-LTPR BsAb activity, one for detecting anti-cMET/anti-EGFR BsAb activity and one for detecting anti-cMET/anti-LTPR BsAb activity. For all ELISAs, clear 96-well round bottom high binding Immulon microtiter plates (Greiner bio-one, cat #650061) are coated overnight at 2-8° C. with 50 μL/well 1 μg/mL hHER-2-Fc or 1 μg/mL hHGFR(cMet)-Fc (both from R&D systems) in a 50 mM Na2CO3 pH 8.3 buffer. The plates are washed 4 times with PBST and blocked with 200 μL/well casein buffer (Pierce) for 1 hr at room temperature. The plates are then washed 4 times with PBST and the parental IgG controls or BsAb IgG test articles are added at 50 μL/well and […] and serially diluted 1:3 down the plate. The controls and test articles are incubated on the plate for 1 hr at room temperature. The plates are then washed 4 times with PBST and 50 μL/well 1 μg/mL hEGFR-Fc-biotin or hLTβR-Fc-biotin (both from R&D systems) is added for 1 hr at room temperature. The plates are then washed 4 times with PBST followed by the addition of a 50 μL/well streptavidin-AP (Jackson Immunoresearch Labs Cat. #016-050-084) diluted 1:1000 in casein buffer. The streptavidin-AP is incubated in each well for 1 hr at room temperature. The plates are then washed 4 times with PBST and 100 μL/well 1-step PNPP substrate is added (Thermo Scientific Cat. #37621). After approximately 5-15 minutes, plates are read for Absorbance (405 nm) using a SPECTRAMAX® UV plate reader (Molecular Devices). Biotin-labeling of the hEGFR-Fc and hLTβR-Fc proteins is performed using EZ-LINK™ Sulfo-NHS-LC-Biotin (Thermo Scientific Cat. #21327) according to the manufacturer's protocol.
row,Binder,binding result
1,B1,no binding
2,B2,no binding
3,B3,no binding
4,B4,no binding
5,B5,no binding
6,B6,no binding

# Target: T2, hLTβR-Fc-biotin (human, UniProt P36941 28-227, limits assumed, biotin-labelled with EZ-LINK Sulfo-NHS-LC-Biotin)
# T2 construct: Bought (R&D systems); Detection antigen of the sandwich; also called LTPR (as printed once); not shown: Fc of the bought fusion protein
# Assay: sandwich ELISA with mis-matched antigens
# Method: as §1
# T2 sequence (P36941 28-227 limits assumed): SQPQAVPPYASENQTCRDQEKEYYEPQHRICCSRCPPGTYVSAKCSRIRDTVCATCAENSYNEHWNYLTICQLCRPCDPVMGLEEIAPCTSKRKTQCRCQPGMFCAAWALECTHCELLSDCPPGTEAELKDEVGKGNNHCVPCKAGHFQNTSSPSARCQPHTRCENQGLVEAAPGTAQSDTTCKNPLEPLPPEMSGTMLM
row,Binder,binding result
1,B5,no binding
2,B6,no binding

# Target: T3, hHGFR(cMet)-Fc (human, UniProt P08581 25-932)
# T3 construct: Bought (R&D systems); Coated on the plate; not shown: Fc of the bought fusion protein
# Assay: sandwich ELISA with mis-matched antigens
# Method: as §1
# T3 sequence (P08581 25-932): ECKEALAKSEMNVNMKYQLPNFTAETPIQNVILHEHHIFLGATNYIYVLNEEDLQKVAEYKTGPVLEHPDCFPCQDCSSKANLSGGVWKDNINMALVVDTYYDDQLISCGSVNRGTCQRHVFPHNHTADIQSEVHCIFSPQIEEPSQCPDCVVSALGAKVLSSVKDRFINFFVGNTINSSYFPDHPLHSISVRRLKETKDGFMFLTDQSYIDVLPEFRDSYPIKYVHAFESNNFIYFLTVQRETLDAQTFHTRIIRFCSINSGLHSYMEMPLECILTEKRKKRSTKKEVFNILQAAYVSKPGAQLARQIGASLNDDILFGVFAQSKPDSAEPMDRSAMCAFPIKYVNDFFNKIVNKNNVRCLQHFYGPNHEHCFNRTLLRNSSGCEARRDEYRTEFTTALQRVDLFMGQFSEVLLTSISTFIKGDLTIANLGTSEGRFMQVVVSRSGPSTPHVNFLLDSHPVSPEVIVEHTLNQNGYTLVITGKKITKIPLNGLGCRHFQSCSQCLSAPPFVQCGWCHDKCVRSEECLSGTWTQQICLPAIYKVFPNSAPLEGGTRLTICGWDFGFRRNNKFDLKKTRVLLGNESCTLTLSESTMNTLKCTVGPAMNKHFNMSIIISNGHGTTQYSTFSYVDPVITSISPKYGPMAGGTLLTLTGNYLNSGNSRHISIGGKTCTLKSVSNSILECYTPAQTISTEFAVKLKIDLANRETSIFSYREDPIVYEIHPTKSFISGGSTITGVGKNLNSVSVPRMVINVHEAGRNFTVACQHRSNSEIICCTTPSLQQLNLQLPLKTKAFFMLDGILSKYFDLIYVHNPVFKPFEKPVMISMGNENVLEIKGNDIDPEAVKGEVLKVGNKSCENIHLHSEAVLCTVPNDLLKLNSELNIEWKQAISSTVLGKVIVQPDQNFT
row,Binder,binding result
1,B7,no binding
2,B8,no binding
3,B9,no binding
4,B10,no binding

# Target: T4, hEGFR-Fc-biotin (human, UniProt P00533 25-645, biotin-labelled with EZ-LINK Sulfo-NHS-LC-Biotin)
# T4 construct: Bought (R&D systems); Detection antigen of the sandwich; not shown: Fc of the bought fusion protein
# Assay: sandwich ELISA with mis-matched antigens
# Method: as §1
row,Binder,binding result
1,B1,no binding
2,B2,no binding
3,B3,no binding
4,B4,no binding
5,B7,no binding
6,B8,no binding
7,B9,no binding
8,B10,no binding

# From patent US20240043552A1 (Eli Lilly, published 2024)
